Key:
[1] = target: CaMKK1_(67–480) D293A, unphosphorylated (human) (UniProt Q8N5S9); test: AUC; sedimentation velocity of CaMKKs alone at two concentrations (CaMKK1 at 10 μM); 50 mM Tris–HCl pH 7.5, 150 mM NaCl, 1 mM TCEP; 20°C, 42,000 rpm; monomer to dimer
[2] = target: dansyl-labeled calmodulin (DANS-CaM), Ca2+-bound (rat) (UniProt P0DP29); test: fluorescence polarisation; 2 μM DANS-CaM titrated with CaMKK (30 μM and binary dilution series), 1 h incubation; 10 mM HEPES-NaOH pH 7.4, 150 mM NaCl, 1 mM CaCl2, 0.1% Tween 20, 0.1% BSA; one-site-binding model
[3] = target: dansyl-labeled calmodulin (DANS-CaM), Ca2+-bound (rat) (UniProt P0DP29); test: fluorescence polarisation; as a1 but with 60 μM 14-3-3γ present: 2 μM DANS-CaM titrated with CaMKK (30 μM and binary dilution series), 1 h incubation; 10 mM HEPES-NaOH pH 7.4, 150 mM NaCl, 1 mM CaCl2, 0.1% Tween 20, 0.1% BSA; one-site-binding model

Substance	stoichiometry N [1]	Kd [2]	Kd [3]
CaMKK1_(67–480) D293A, unphosphorylated (from UniProt Q8N5S9 67-480) (domain or fragment)	2		
pCaMKK2: CaMKK2(93-517) D330A phosphorylated by PKA at four sites (from UniProt Q96RR4 93-517) (domain or fragment)		3550 nM	> 10800 nM
CaMKK2(93-517) D330A, unphosphorylated (from UniProt Q96RR4 93-517) (domain or fragment)		560 nM	510 nM
